This note sets out measurements from publication PMC9943653.

The subject of data set [1] is Gal4 (1-147). The data set can be described thus: single-molecule FRET. The settings on record: EMSA: 10 mM Tris-HCl pH 8, 130 mM NaCl, 10% glycerol, 0.0075% Tween-20, 0.5 nM DNA or nucleosome, smFRET: same Tris/NaCl/glycerol with 0.5% Tween-20, 0.1 mg/ml ….
The subject of data set [2] is Gal4 (1-147). The data set is described as follows: ensemble FRET. The conditions noted are these: EMSA: 10 mM Tris-HCl pH 8, 130 mM NaCl, 10% glycerol, 0.0075% Tween-20, 0.5 nM DNA or nucleosome, smFRET: same Tris/NaCl/glycerol with 0.5% Tween-20, 0.1 mg/ml ….

As for P26 nucleosome, 222 bp, the dissociation constant (Kd) in the data set on Gal4 (1-147) [1] (kon eff 0.11 nM-1 s-1, koff 0.66 s-1) was found to be 0.0061 µM.
As for P33 nucleosome, full Gal4 site, in the data set with Gal4 (1-147) [2], the K half was determined as 240 nM.
P31 nucleosome, full Gal4 site: in the data set with Gal4 (1-147) [2], the K half was 500 nM.
For P31 nucleosome, 222 bp, the Kd in the data set on Gal4 (1-147) [1] (kon eff 0.0008 nM-1 s-1, koff 0.83 s-1) was determined as 0.98 µM.
In the data set on Gal4 (1-147) [1] (kon eff 0.004 nM-1 s-1, koff 1.03 s-1), P36 nucleosome, 222 bp came in with a Kd of 0.26 µM.
In the data set with Gal4 (1-147) [2], P36 nucleosome, full Gal4 site registered a K half of 290 nM.
Take P26 nucleosome D17: in the data set with Gal4 (1-147) [2] (amino-C6-dT at nt 17 of strand 1), the K half was 9 nM.
In the data set with Gal4 (1-147) [2] (text prints P29), “P28 nucleosome, full Gal4 site (called P29 once in text)” displayed a K half of 1.7 nM.
With P26 nucleosome, full Gal4 site (D1), the K half in the data set on Gal4 (1-147) [2] came to 4.3 nM.
